Data on three molecules can be found in article PMC8274241.

Read-outs that look alike come from different tables or passages of the source.

What all share (test): cryo-EM
Data set [1] deals with T1, LshCas13a (Leptotrichia shahii, UniProt P0DOC6 1-1389).
T1 sequence: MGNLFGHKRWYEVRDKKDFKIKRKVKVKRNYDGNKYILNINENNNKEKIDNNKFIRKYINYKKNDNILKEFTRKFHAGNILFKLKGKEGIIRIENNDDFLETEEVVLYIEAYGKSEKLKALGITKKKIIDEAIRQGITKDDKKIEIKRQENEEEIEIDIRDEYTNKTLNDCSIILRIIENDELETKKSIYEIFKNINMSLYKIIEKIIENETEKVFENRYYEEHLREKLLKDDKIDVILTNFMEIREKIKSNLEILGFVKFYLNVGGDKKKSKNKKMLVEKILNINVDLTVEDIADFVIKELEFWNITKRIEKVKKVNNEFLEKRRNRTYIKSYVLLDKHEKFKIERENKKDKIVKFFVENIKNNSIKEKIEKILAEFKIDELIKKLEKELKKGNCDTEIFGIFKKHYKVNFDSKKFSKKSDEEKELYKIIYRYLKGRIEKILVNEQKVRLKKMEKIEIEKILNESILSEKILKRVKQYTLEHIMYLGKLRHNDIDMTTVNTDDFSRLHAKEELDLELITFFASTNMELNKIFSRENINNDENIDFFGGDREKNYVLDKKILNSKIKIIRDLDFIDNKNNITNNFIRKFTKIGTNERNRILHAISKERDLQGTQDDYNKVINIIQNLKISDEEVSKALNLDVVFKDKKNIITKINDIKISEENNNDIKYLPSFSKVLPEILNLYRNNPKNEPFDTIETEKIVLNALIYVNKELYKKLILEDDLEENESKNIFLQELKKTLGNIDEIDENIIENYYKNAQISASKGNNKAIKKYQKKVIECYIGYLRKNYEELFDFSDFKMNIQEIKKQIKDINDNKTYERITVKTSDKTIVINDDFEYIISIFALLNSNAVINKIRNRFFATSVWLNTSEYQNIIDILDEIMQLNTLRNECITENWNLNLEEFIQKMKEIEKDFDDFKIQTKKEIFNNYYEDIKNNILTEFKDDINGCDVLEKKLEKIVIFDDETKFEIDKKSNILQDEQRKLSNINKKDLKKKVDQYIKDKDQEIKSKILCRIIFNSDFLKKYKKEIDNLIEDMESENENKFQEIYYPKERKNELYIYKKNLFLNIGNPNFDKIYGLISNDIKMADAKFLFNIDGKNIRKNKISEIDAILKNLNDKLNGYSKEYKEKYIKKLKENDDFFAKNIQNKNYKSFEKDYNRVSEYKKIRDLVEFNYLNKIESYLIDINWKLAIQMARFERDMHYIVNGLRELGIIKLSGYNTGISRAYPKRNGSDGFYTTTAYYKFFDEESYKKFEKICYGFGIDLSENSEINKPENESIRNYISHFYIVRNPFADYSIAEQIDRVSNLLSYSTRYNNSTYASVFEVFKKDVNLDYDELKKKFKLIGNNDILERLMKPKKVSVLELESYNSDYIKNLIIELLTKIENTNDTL

For data set [2], the target named is T1, LshCas13a. This is another data set of the same source.
Data set [3] has as its target T1, LshCas13a. The source holds these as a separate data set.

B1: Lsh crRNA (56-nt as named) + RNA6 (8-nt anti-tag) (mixed)
RNA 1: GGCCACCCCAAUAUCGAAGGGGACUAAAACUAGAUUGCUGUUCUACCAAGUAAUCCAU
RNA 2: GAUGGAUUACUUGGUAGAACAGCAAUCUAGUUUUAGU
Take B1: the binding result in the data set with LshCas13a [1] is listed as “binds”.

B2: Lsh crRNA + RNA4 (no anti-tag) (mixed)
RNA 1: B1 RNA 1
RNA 2: GAUGGAUUACUUGGUAGAACAGCAAUCUACAAAAUCA
Consider B2, for which the binding result in the data set with LshCas13a [2] was “binds”.

B3: Lsh crRNA alone (structured_RNA)
RNA: B1 RNA 1
In the case of B3, the binding result with LshCas13a [3] is listed as “binds”.
